Assay results: publication PMC4417627 (Biochemistry, 2013)
Where two headings read alike, the source gives them in different places.

Columns and labels:
[1] = target: IKKβ 701-745 (Homo sapiens) (UniProt O14920); assay: SPR; conditions: cited from earlier work
[2] = target: IKKβ 680-756 (Homo sapiens) (UniProt O14920); assay: ITC; conditions: cited from earlier work
[3] = target: IKKβ 680-756 (Homo sapiens) (UniProt O14920); assay: SPR; conditions: cited from earlier work
cross-linking [4] = target: the molecule itself; assay: cross-linking
cross-linking [5] = target: the molecule itself; assay: cross-linking; remark: listed apart in the source
[6] = target: the molecule itself; assay: fluorescence polarisation

IKKβ 680-756 (Homo sapiens), sequence (O14920 680-756): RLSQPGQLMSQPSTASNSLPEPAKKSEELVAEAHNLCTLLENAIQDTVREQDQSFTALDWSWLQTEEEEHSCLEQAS
NEMO 38-196, sequence (Q9Y6K9 38-196): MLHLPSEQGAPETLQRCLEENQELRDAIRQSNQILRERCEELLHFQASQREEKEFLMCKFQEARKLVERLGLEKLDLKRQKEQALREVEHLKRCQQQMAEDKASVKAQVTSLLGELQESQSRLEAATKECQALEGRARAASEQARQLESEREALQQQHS
IKKβ 701-745 (Homo sapiens), sequence (O14920 701-745): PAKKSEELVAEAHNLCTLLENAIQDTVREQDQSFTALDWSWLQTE
NEMO 2-200, sequence (Q9Y6K9 2-200): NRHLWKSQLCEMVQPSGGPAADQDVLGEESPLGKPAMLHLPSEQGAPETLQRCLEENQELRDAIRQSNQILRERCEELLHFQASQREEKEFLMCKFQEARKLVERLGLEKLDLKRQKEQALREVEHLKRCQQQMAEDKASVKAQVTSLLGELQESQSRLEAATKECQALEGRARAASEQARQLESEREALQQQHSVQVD

| Molecule | stoichiometry N (cross-linking [4]) | further results |
| --- | --- | --- |
| NEMO 2-200 (from UniProt Q9Y6K9) | – | Kd [1]: 76 nM |
| NEMO 38-196 (from UniProt Q9Y6K9) | – | Kd [2]: 1000 nM; Kd [3]: 3.4 nM |
| 5xAla NEMO, recombinant full-length, C-terminal 6xHis (natural protein, human, UniProt Q9Y6K9 1-419, looked up) MNRHLWKSQLAEMVQPSGGPAADQDVLGEESPLGKPAMLHLPSEQGAPETLQRCLEENQELRDAIRQSNQILRERAEELLHFQASQREEKEFLMAKFQEARKLVERLGLEKLDLKRQKEQALREVEHLKRAQQQMAEDKASVKAQVTSLLGELQESQSRLEAATKEAQALEGRARAASEQARQLESEREALQQQHSVQVDQLRMQGQSVEAALRMERQAASEEKRKLAQLQVAYHQLFQEYDNHIKSSVVGSERKRGMQLEDLKQQLQQAEEALVAKQEVIDKLKEEAEQHKIVMETVPVLKAQADIYKADFQAERQAREKLAEKKELLQEQLEQLQREYSKLKASCQESARIEDMRKRHVEVSQAPLPPAPAYLSSPLALPSQRRSPPEEPPDFCCPKCQYQAPDMDTLQIHVMECIE | 2 | – |
| 6xAla NEMO containing Cys11 (Cys11 added back into the 7xAla construct) (natural protein, human, UniProt Q9Y6K9 1-419, looked up) MNRHLWKSQLCEMVQPSGGPAADQDVLGEESPLGKPAMLHLPSEQGAPETLQRALEENQELRDAIRQSNQILRERAEELLHFQASQREEKEFLMAKFQEARKLVERLGLEKLDLKRQKEQALREVEHLKRAQQQMAEDKASVKAQVTSLLGELQESQSRLEAATKEAQALEGRARAASEQARQLESEREALQQQHSVQVDQLRMQGQSVEAALRMERQAASEEKRKLAQLQVAYHQLFQEYDNHIKSSVVGSERKRGMQLEDLKQQLQQAEEALVAKQEVIDKLKEEAEQHKIVMETVPVLKAQADIYKADFQAERQAREKLAEKKELLQEQLEQLQREYSKLKASAQESARIEDMRKRHVEVSQAPLPPAPAYLSSPLALPSQRRSPPEEPPDFCCPKCQYQAPDMDTLQIHVMECIE | 2 | – |
| 6xAla NEMO containing Cys54 (Cys54 added back into the 7xAla construct) (natural protein, human, UniProt Q9Y6K9 1-419, looked up) MNRHLWKSQLAEMVQPSGGPAADQDVLGEESPLGKPAMLHLPSEQGAPETLQRCLEENQELRDAIRQSNQILRERAEELLHFQASQREEKEFLMAKFQEARKLVERLGLEKLDLKRQKEQALREVEHLKRAQQQMAEDKASVKAQVTSLLGELQESQSRLEAATKEAQALEGRARAASEQARQLESEREALQQQHSVQVDQLRMQGQSVEAALRMERQAASEEKRKLAQLQVAYHQLFQEYDNHIKSSVVGSERKRGMQLEDLKQQLQQAEEALVAKQEVIDKLKEEAEQHKIVMETVPVLKAQADIYKADFQAERQAREKLAEKKELLQEQLEQLQREYSKLKASAQESARIEDMRKRHVEVSQAPLPPAPAYLSSPLALPSQRRSPPEEPPDFCCPKCQYQAPDMDTLQIHVMECIE | 2 | – |
| 5xAla NEMO, full-length, expressed in NEMO-deficient mouse fibroblasts (natural protein, human, UniProt Q9Y6K9 1-419, looked up) MNRHLWKSQLAEMVQPSGGPAADQDVLGEESPLGKPAMLHLPSEQGAPETLQRCLEENQELRDAIRQSNQILRERAEELLHFQASQREEKEFLMAKFQEARKLVERLGLEKLDLKRQKEQALREVEHLKRAQQQMAEDKASVKAQVTSLLGELQESQSRLEAATKEAQALEGRARAASEQARQLESEREALQQQHSVQVDQLRMQGQSVEAALRMERQAASEEKRKLAQLQVAYHQLFQEYDNHIKSSVVGSERKRGMQLEDLKQQLQQAEEALVAKQEVIDKLKEEAEQHKIVMETVPVLKAQADIYKADFQAERQAREKLAEKKELLQEQLEQLQREYSKLKASCQESARIEDMRKRHVEVSQAPLPPAPAYLSSPLALPSQRRSPPEEPPDFCCPKCQYQAPDMDTLQIHVMECIE | – | stoichiometry N (cross-linking [5]): 2 |
| 6xAla NEMO containing Cys76 (Cys76 added back into the 7xAla construct) (natural protein, human, UniProt Q9Y6K9 1-419, looked up) MNRHLWKSQLAEMVQPSGGPAADQDVLGEESPLGKPAMLHLPSEQGAPETLQRALEENQELRDAIRQSNQILRERCEELLHFQASQREEKEFLMAKFQEARKLVERLGLEKLDLKRQKEQALREVEHLKRAQQQMAEDKASVKAQVTSLLGELQESQSRLEAATKEAQALEGRARAASEQARQLESEREALQQQHSVQVDQLRMQGQSVEAALRMERQAASEEKRKLAQLQVAYHQLFQEYDNHIKSSVVGSERKRGMQLEDLKQQLQQAEEALVAKQEVIDKLKEEAEQHKIVMETVPVLKAQADIYKADFQAERQAREKLAEKKELLQEQLEQLQREYSKLKASAQESARIEDMRKRHVEVSQAPLPPAPAYLSSPLALPSQRRSPPEEPPDFCCPKCQYQAPDMDTLQIHVMECIE | 2 | – |
| 6xAla NEMO containing Cys347 (Cys347 added back into the 7xAla construct) (natural protein, human, UniProt Q9Y6K9 1-419, looked up) MNRHLWKSQLAEMVQPSGGPAADQDVLGEESPLGKPAMLHLPSEQGAPETLQRALEENQELRDAIRQSNQILRERAEELLHFQASQREEKEFLMAKFQEARKLVERLGLEKLDLKRQKEQALREVEHLKRAQQQMAEDKASVKAQVTSLLGELQESQSRLEAATKEAQALEGRARAASEQARQLESEREALQQQHSVQVDQLRMQGQSVEAALRMERQAASEEKRKLAQLQVAYHQLFQEYDNHIKSSVVGSERKRGMQLEDLKQQLQQAEEALVAKQEVIDKLKEEAEQHKIVMETVPVLKAQADIYKADFQAERQAREKLAEKKELLQEQLEQLQREYSKLKASCQESARIEDMRKRHVEVSQAPLPPAPAYLSSPLALPSQRRSPPEEPPDFCCPKCQYQAPDMDTLQIHVMECIE | 2 | – |
| 7xAla NEMO, recombinant full-length, C-terminal 6xHis (natural protein, human, UniProt Q9Y6K9 1-419, looked up) MNRHLWKSQLAEMVQPSGGPAADQDVLGEESPLGKPAMLHLPSEQGAPETLQRALEENQELRDAIRQSNQILRERAEELLHFQASQREEKEFLMAKFQEARKLVERLGLEKLDLKRQKEQALREVEHLKRAQQQMAEDKASVKAQVTSLLGELQESQSRLEAATKEAQALEGRARAASEQARQLESEREALQQQHSVQVDQLRMQGQSVEAALRMERQAASEEKRKLAQLQVAYHQLFQEYDNHIKSSVVGSERKRGMQLEDLKQQLQQAEEALVAKQEVIDKLKEEAEQHKIVMETVPVLKAQADIYKADFQAERQAREKLAEKKELLQEQLEQLQREYSKLKASAQESARIEDMRKRHVEVSQAPLPPAPAYLSSPLALPSQRRSPPEEPPDFCCPKCQYQAPDMDTLQIHVMECIE | 2 | Kd [6]: < 5 nM |
